Source: patent US20190077860A1 (EISAI R AND D MANAGEMENT, published 2019)

T1: human EphB2 extracellular region-SEAP-His protein (human, UniProt P29323 19-543)
T1 construct: extracellular domain; also called hEphB2-SEAP-His
T1 sequence (looked up): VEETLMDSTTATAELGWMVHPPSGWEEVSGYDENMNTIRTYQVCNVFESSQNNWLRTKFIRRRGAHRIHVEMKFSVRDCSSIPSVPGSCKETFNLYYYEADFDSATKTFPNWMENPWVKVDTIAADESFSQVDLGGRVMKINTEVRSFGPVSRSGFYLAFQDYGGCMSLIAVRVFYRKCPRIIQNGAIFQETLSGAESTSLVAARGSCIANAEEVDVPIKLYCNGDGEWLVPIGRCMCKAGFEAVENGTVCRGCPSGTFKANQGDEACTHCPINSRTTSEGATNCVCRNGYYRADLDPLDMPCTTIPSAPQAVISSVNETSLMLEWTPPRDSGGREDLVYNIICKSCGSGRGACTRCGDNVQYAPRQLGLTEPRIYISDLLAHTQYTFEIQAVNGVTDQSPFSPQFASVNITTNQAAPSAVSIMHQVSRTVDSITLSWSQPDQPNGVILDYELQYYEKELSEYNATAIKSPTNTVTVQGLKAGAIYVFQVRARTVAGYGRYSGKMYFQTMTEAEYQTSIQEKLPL


Columns and labels:
[1] = target: T1, human EphB2 extracellular …; assay: ELISA
Protocol: Each well of a 96-well plate (Nunc) was coated with a rabbit anti-6-His antibody (Bethyl Laboratories). Each well was […] After washing with 0.05% Tween 20/PBS (Nacalai Tesque) three times, the SEAP-His protein of human EphA1, EphA2, EphA3, EphA4, EphA5, EphA6, EphA7, EphA8, EphA10, EphB1, EphB2, EphB3, EphB4, or EphB6 was added (final concentration: 1 nM) to each well and incubated at room temperature for 1 hour. After washing three times, the humanized antibody was added to each well and incubated at room temperature for 1 hour. After washing three times, a horseradish peroxidase-labeled donkey […] antibody (Jackson ImmunoResearch Laboratories) was added thereto and incubated at room temperature for 1 hour. After washing three times, TMB Microwell Peroxidase Substrate System (Kirkegaard & Perry Laboratories (KPL)) was added to each well. After confirmation of moderate color development, an equal amount of a reaction stopping solution (1N H₂SO₄, Wako Pure Chemical Industries) was added to each well. The absorbance at 450 nm was read using a microplate reader (Thermo Fisher Scientific).

[2] = target: T2, human EphA4 extracellular region-SEAP-His protein (human, UniProt P54764 20-547); assay: SPR, Ab captured
T2 construct: also called hEphA4-SEAP-His
T2 sequence (P54764 20-547): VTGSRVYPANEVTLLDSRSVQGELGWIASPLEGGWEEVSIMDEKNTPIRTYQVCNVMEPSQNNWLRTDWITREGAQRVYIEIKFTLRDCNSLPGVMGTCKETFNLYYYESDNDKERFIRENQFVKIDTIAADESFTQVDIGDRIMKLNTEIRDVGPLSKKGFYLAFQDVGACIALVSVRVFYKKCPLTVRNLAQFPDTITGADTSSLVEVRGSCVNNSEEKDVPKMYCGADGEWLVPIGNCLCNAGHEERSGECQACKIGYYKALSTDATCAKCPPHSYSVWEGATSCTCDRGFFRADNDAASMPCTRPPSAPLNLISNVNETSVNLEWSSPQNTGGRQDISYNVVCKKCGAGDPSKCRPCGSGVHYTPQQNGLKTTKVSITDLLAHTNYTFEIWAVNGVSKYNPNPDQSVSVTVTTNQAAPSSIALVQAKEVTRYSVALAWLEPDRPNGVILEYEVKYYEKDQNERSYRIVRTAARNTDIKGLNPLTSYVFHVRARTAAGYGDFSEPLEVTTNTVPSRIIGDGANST
Protocol: The binding affinity of each anti-EphA4 monoclonal humanized antibody obtained in Example 16 for human EphA4 was determined by surface plasmon resonance (SPR) using Biacore T200 (GE Healthcare). First, for the assay of antibody A, a rat anti-mouse IgG₁ antibody produced with a conventional method by immunizing rat with mouse IgG₁ antibody was immobilized on sensor chip CM5. The immobilization of the rat anti-mouse IgG1 antibody on sensor chip CM5 was performed by the amine coupling method using N-hydroxysuccinimide (NHS) and N-ethyl-N′-(3-dimethylaminopropyl)carbodiimide hydrochloride (EDC). Ethanolamine was used in blocking (the sensor chip and the reagents for immobilization were all manufactured by GE Healthcare). The antibody was diluted with a buffer solution for immobilization (10 mM sodium acetate, pH 4.5) and immobilized on the sensor chip according to the protocol attached to Biacore T200. For the assay of each humanized monoclonal antibody, a protein A chip (GE Healthcare, 29-1383-03) was used. Antibody A or the humanized monoclonal antibody was diluted with a running buffer solution HBS-EP (GE Healthcare), injected onto only flow cell 2 for 120 seconds, and captured (captured amount: approximately 30 to 60 RU). Subsequently, human EphA4 extracellular region-SEAP-His protein serially diluted in the range of 50, 16.7, 5.6, 1.9, and 0.6 nM using HBS-EP was sequentially added from the lower toward higher concentration sides without regeneration operation. Binding reaction curves were sequentially observed at the time of the addition (association phase, for 120 sec) and after the completion of the addition (dissociation phase, for 900 sec). After the completion of each observation, the sensor chip was regenerated by the addition of 3 M MgCl₂ (for 60 sec) or 10 mM Glycine-HCl pH 1.5 (for 30 sec). The obtained binding reaction curves were subjected to fitting analysis with 1:1 binding models using software BIA evaluation attached to the system to calculate the affinity (KD=kd/ka) for human EphA4 (Table 6).

[3] = target: T2, human EphA4 extracellular …; assay: competition ELISA, competitor human Ephrin A5-Fc
Protocol: Each anti-EphA4 monoclonal humanized antibody obtained in Example 16 was evaluated for its inhibitory activity against the binding between human EphA4 and its human ligand according to the following steps. Each well of a 96-well plate (Nunc) was coated with an anti-alkaline phosphatase antibody (Thermo Fisher Scientific). After incubation overnight at 4° C., each well was blocked with 1% BlockAce (DS Pharma Biomedical) at room temperature for 1 hour. After washing with 0.05% Tween 20/PBS (Thermo Fisher Scientific) three times, the human EphA4 extracellular region-SEAP-His protein obtained by the method of Example 2 was added (final concentration: 10 nM) to each well and incubated at room temperature for 1 hour. After washing three times, a ligand and each serially diluted humanized antibody of antibody A (0, 0.003, 0.01, 0.03, 0.1, 0.3, 1, 3, 10, 30, 100, 300, 1000, and 3000 nM) were added to each well. The ligand used was biotinylated human Ephrin A5-Fc chimera (R&D Systems, final concentration: 0.7 nM). After incubation at room temperature for 1 hour and subsequent washing three times, horseradish peroxidase-labeled streptavidin (GE Healthcare) was added thereto and incubated at room temperature for 1 hour. After washing three times, a TMBZ (3,3′,5,5′-tetramethylbenzidine, Sigma-Aldrich) solution was added to each well and incubated at room temperature for 2 minutes. An equal amount of a reaction stopping solution (1N H₂SO₄, Wako Pure Chemical Industries) was added to each well. The absorbance at 450 nm was read using a microplate reader (PerkinElmer).

| A450 as % of hEphA4-SEAP-His [1] | Kd [2] | koff [2] | kon [2] | IC50 [3] | Binder |
| --- | --- | --- | --- | --- | --- |
| 5.7% | 1.3 nM | 0.00041 s⁻¹ | 310000 M⁻¹ s⁻¹ | 4.3 nM | humanized antibody No. 89 (antibody, human IgG1, kappa, human Ig kappa; also called L1-6/HA4) heavy: QIQLVQSGSELKKPGASVKVSCKASGYTFTDYSMHWVRQAPGQGLKWMGWINTETGEPTYAQGFTGRFVFSLDTSVSTAYLQISSLKAEDTAVYYCARIPLYYYGSRYWYFDVWGQGTTVTVSSASTKGPSVFPLAPSSKSTSGGTAALGCLVKDYFPEPVTVSWNSGALTSGVHTFPAVLQSSGLYSLSSVVTVPSSSLGTQTYICNVNHKPSNTKVDKRVEPKSCDKTHTCPPCPAPPAAAPSVFLFPPKPKDTLMISRTPEVTCVVVDVSHEDPEVQFNWYVDGVEVHNAKTKPREEQFNSTFRVVSVLTVVHQDWLNGKEYKCKVSNKGLPAPIEKTISKTKGQPREPQVYTLPPSREEMTKNQVSLTCLVKGFYPSDIAVEWESNGQPENNYKTTPPMLDSDGSFFLYSKLTVDKSRWQQGNVFSCSVMHEALHNHYTQKSLSLSPG light: DIQMTQSPSSLSASVGDRVTITCRASENIYRNLAWYQQKPGKAPQLLLYAATNLADGVPSRFSGSGSGTDYTLTISSLQPEDFATYYCQHFWGTPWTFGQGTKVEIKRTVAAPSVFIFPPSDEQLKSGTASVVCLLNNFYPREAKVQWKVDNALQSGNSQESVTEQDSKDSTYSLSSTLTLSKADYEKHKVYACEVTHQGLSSPVTKSFNRGEC |
| 7% | 1.3 nM | 0.00044 s⁻¹ | 330000 M⁻¹ s⁻¹ | 4.9 nM | humanized antibody No. 91 (antibody, human IgG1, kappa, human Ig kappa; also called L1-6/HK2) heavy: QVQLVQSGSELKKPGASVKVSCKASGYTFTDYSMHWVRQAPGQGLKWMGWINTETGEPTYADDFKGRFVFSLDTSVSTAYLQISSLKAEDTAVYYCARIPLYYYGSRYWYFDVWGQGTTVTVSSASTKGPSVFPLAPSSKSTSGGTAALGCLVKDYFPEPVTVSWNSGALTSGVHTFPAVLQSSGLYSLSSVVTVPSSSLGTQTYICNVNHKPSNTKVDKRVEPKSCDKTHTCPPCPAPPAAAPSVFLFPPKPKDTLMISRTPEVTCVVVDVSHEDPEVQFNWYVDGVEVHNAKTKPREEQFNSTFRVVSVLTVVHQDWLNGKEYKCKVSNKGLPAPIEKTISKTKGQPREPQVYTLPPSREEMTKNQVSLTCLVKGFYPSDIAVEWESNGQPENNYKTTPPMLDSDGSFFLYSKLTVDKSRWQQGNVFSCSVMHEALHNHYTQKSLSLSPG light: DIQMTQSPSSLSASVGDRVTITCRASENIYRNLAWYQQKPGKAPQLLLYAATNLADGVPSRFSGSGSGTDYTLTISSLQPEDFATYYCQHFWGTPWTFGQGTKVEIKRTVAAPSVFIFPPSDEQLKSGTASVVCLLNNFYPREAKVQWKVDNALQSGNSQESVTEQDSKDSTYSLSSTLTLSKADYEKHKVYACEVTHQGLSSPVTKSFNRGEC |
| 5.9% | 1.5 nM | 0.00055 s⁻¹ | 360000 M⁻¹ s⁻¹ | 4.5 nM | humanized antibody No. 90 (antibody, human IgG1, kappa, human Ig kappa; also called L1-6/HK1) heavy: QVQLVQSGSELKKPGASVKVSCKASGYTFTDYSMHWVRQAPGQGLEWMGWINTETGEPTYADDFKGRFVFSLDTSVSTAYLQISSLKAEDTAVYYCARIPLYYYGSRYWYFDVWGQGTTVTVSSASTKGPSVFPLAPSSKSTSGGTAALGCLVKDYFPEPVTVSWNSGALTSGVHTFPAVLQSSGLYSLSSVVTVPSSSLGTQTYICNVNHKPSNTKVDKRVEPKSCDKTHTCPPCPAPPAAAPSVFLFPPKPKDTLMISRTPEVTCVVVDVSHEDPEVQFNWYVDGVEVHNAKTKPREEQFNSTFRVVSVLTVVHQDWLNGKEYKCKVSNKGLPAPIEKTISKTKGQPREPQVYTLPPSREEMTKNQVSLTCLVKGFYPSDIAVEWESNGQPENNYKTTPPMLDSDGSFFLYSKLTVDKSRWQQGNVFSCSVMHEALHNHYTQKSLSLSPG light: DIQMTQSPSSLSASVGDRVTITCRASENIYRNLAWYQQKPGKAPQLLLYAATNLADGVPSRFSGSGSGTDYTLTISSLQPEDFATYYCQHFWGTPWTFGQGTKVEIKRTVAAPSVFIFPPSDEQLKSGTASVVCLLNNFYPREAKVQWKVDNALQSGNSQESVTEQDSKDSTYSLSSTLTLSKADYEKHKVYACEVTHQGLSSPVTKSFNRGEC |
| 6.6% | 1.3 nM | 0.00043 s⁻¹ | 330000 M⁻¹ s⁻¹ | 3.5 nM | humanized antibody No. 92 (antibody, human IgG1, kappa, human Ig kappa; also called L1-6/HK4) heavy: QIQLVQSGSELKKPGASVKVSCKASGYTFTDYSMHWVRQAPGQGLKWMGWINTETGEPTYADDFKGRFVFSLDTSVSTAYLQISSLKAEDTAVYYCARIPLYYYGSRYWYFDVWGQGTTVTVSSASTKGPSVFPLAPSSKSTSGGTAALGCLVKDYFPEPVTVSWNSGALTSGVHTFPAVLQSSGLYSLSSVVTVPSSSLGTQTYICNVNHKPSNTKVDKRVEPKSCDKTHTCPPCPAPPAAAPSVFLFPPKPKDTLMISRTPEVTCVVVDVSHEDPEVQFNWYVDGVEVHNAKTKPREEQFNSTFRVVSVLTVVHQDWLNGKEYKCKVSNKGLPAPIEKTISKTKGQPREPQVYTLPPSREEMTKNQVSLTCLVKGFYPSDIAVEWESNGQPENNYKTTPPMLDSDGSFFLYSKLTVDKSRWQQGNVFSCSVMHEALHNHYTQKSLSLSPG light: DIQMTQSPSSLSASVGDRVTITCRASENIYRNLAWYQQKPGKAPQLLLYAATNLADGVPSRFSGSGSGTDYTLTISSLQPEDFATYYCQHFWGTPWTFGQGTKVEIKRTVAAPSVFIFPPSDEQLKSGTASVVCLLNNFYPREAKVQWKVDNALQSGNSQESVTEQDSKDSTYSLSSTLTLSKADYEKHKVYACEVTHQGLSSPVTKSFNRGEC |
